Experimental data: patent publication US20200385482A1

B1: Ab-52 (antibody, V domains shown)
VH: QVQLQESGGGVVQPGRSLRLSCSASGFTFSRHGMHWVRQAPGKGLEWVAVISHDGSVKYYADSMKGRFSISRDNSNNTLYLQMDSLRADDTAVYYCARGLSYQVSGWFDPWGQGTLVTVSS
VL: NFMLTQPHSVSESPGKTVTISCTRSSGSIASNYVQWYQQRPGSAPTTVIYEDNQRPSGVPDRFSGSIDSSSNSASLTISGLKTEDEADYYCQSYDSTTPSVFGGGTKLTVL
B2: Ab-31 (antibody, V domains shown)
VH: QVQLVQSGAEVKKPGATVKVSCKVFGDTFRGLYIHWVRQAPGQGLEWMGGIIPIFGTANYAQKFQGRVTITTDESTSTAYMELSSLRSEDTAVYYCASGLRWGIWGWFDPWGQGTLVTVSS
VL: EIVLTQSPATLSLSPGERATLSCRASQSIGNSLAWYQQKPGQAPRLLMYGASSRATGIPDRFSGSGAGTDFTLTISSLEPEDFATYYCQQHTIPTFSFGPGTKVEVK
B3: Ab-16 (antibody, V domains shown)
VH: EVQLVQSGGGVVQPGRSLRLSCAASGFTFSSYALSWVRQAPGKGLEWVSAISGGGGSTYYADSVKGRFTISRDNSKNTLYLQMNSLRAEDTAVYYCAKDVFPETFSMNYGMDVWGQGTLVTVSS
VL: SSELTQDPAVSVALGQTVRITCQGDSLRSYYASWYQQKPGQAPVLVIYGKNNRPSGIPDRFSGSSSGNTASLTITGAQAEDEADYYCNSRDSSGNHYVFGTGTKVTVL

Biological target: human C-type lectin domain family 2 member (hCLEC2D) expressed on transfected 300.19 cells (human) (UniProt Q9UHP7)
Test: FACS, hCLEC2D 300.19 cells, assay 2, Ab approx 10 ug/ml

Sequence of human C-type lectin domain family 2 member (hCLEC2D) expressed on transfected 300.19 cells (human) (Q9UHP7 whole entry, the tested form may be a part): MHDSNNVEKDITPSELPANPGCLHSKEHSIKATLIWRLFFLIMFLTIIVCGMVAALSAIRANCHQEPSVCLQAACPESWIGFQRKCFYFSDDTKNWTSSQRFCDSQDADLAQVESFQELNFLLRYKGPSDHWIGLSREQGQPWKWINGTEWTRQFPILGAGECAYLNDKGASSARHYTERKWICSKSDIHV

Row | Binder | Cells PE-A Mean
1 | B1 | 3140 MFI
2 | B2 | 2950 MFI
3 | B3 | 2370 MFI

Biological target: human C-type lectin domain family 2 member (hCLEC2D) expressed on transfected 300.19 cells (human) (UniProt Q9UHP7)
Test: FACS, hCLEC2D 300.19 cells, assay 2, Ab 0.1 ug/ml

Row | Binder | Cells PE-A Mean
4 | B1 | 298 MFI
5 | B2 | 360 MFI
6 | B3 | 294 MFI

Biological target: human C-type lectin domain family 2 member (hCLEC2D) expressed on transfected 300.19 cells (human) (UniProt Q9UHP7)
Test: FACS, hCLEC2D 300.19 cells, assay 2, Ab 1 ug/ml

Row | Binder | Cells PE-A Mean
7 | B1 | 1100 MFI
8 | B2 | 870 MFI
9 | B3 | 898 MFI

Biological target: human C-type lectin domain family 2 member (hCLEC2D) expressed on transfected 300.19 cells (human) (UniProt Q9UHP7)
Test: FACS, hCLEC2D 300.19 cells, assay 1, Ab 0.1 ug/ml

Row | Binder | Cells PE-A Mean
10 | B1 | 298 MFI
11 | B2 | 360 MFI
12 | B3 | 294 MFI

Biological target: human C-type lectin domain family 2 member (hCLEC2D) expressed on transfected 300.19 cells (human) (UniProt Q9UHP7)
Test: FACS, hCLEC2D 300.19 cells, assay 2, Ab 0.01 ug/ml

Row | Binder | Cells PE-A Mean
13 | B1 | 166 MFI
14 | B2 | 153 MFI
15 | B3 | 154 MFI

Biological target: human C-type lectin domain family 2 member (hCLEC2D) expressed on transfected 300.19 cells (human) (UniProt Q9UHP7)
Test: FACS, hCLEC2D 300.19 cells, assay 1, Ab 1 ug/ml

Row | Binder | Cells PE-A Mean
16 | B1 | 1100 MFI
17 | B2 | 870 MFI
18 | B3 | 898 MFI

Biological target: human C-type lectin domain family 2 member (hCLEC2D) expressed on transfected 300.19 cells (human) (UniProt Q9UHP7)
Test: FACS, hCLEC2D 300.19 cells, assay 1, Ab 0.01 ug/ml

Row | Binder | Cells PE-A Mean
19 | B1 | 166 MFI
20 | B2 | 153 MFI
21 | B3 | 154 MFI

Biological target: human C-type lectin domain family 2 member (hCLEC2D) expressed on transfected 300.19 cells (human) (UniProt Q9UHP7)
Test: FACS, hCLEC2D 300.19 cells, assay 1, Ab approx 10 ug/ml

Row | Binder | Cells PE-A Mean
22 | B1 | 3140 MFI
23 | B2 | 2950 MFI
24 | B3 | 2370 MFI
